Data reported in article PMC10524254.
Read-outs that look alike come from different tables or passages of the source.

Substance: CD79A: N112Q
- localisation_or_trafficking (N-glycosylation at N112): no change

Substance: CD79B: N73Q
- localisation_or_trafficking (N-glycosylation at N73): no change

Substance: CD79B: N101Q
- localisation_or_trafficking (N-glycosylation at N101): no change

Substance: IgM: N209Q
- localisation_or_trafficking (N-glycosylation at N209): no change
